Results reported in publication PMC9911311.

Target: Adeno-associated virus type 2 (AAV2) capsid viral protein VP3 (adeno-associated virus type 2)
Experiment: cryo-EM structure

Substance: Adeno-associated virus type 2 (AAV2) capsid viral protein VP3 (natural protein)
- stoichiometry N: 60
